Earlier results as cited in patent publication US20040115213A1, “Use of IL-2 receptor antibodies” (priority 2002, published 2004).

Experiments:
[1] = patients given amphotericin-B
[2] = monkeys; Hakimi et al.
[3] = human patients

Compound | patients experiencing some degree of nephrotoxicity [1] | immunogenicity relative to mouse antibody [2] | immunogenicity (HAMA response) [3]
CC1OC(O[C@H]2/C=C/C=C/C=C/C=C/C=C/C=C/C=C/[C@H](C)[C@@H](O)[C@@H](C)[C@H](C)OC(=O)C[C@H](O)C[C@H](O)CC[C@@H](O)[C@H](O)C[C@H](O)C[C@]3(O)C[C@H](O)C(C(=O)O)[C@H](C2)O3)C(O)C(N)C1O (stereo partly drawn) [amphotericin-B, [1R-(1 R *,3 S *, 5 R *, 6 R *,9 R *,11 R *,15 S *,16 R *,17 R *,18 S *, 19 E,21 E, 23 E,25 E, 27 E,29 E,31 E,33 R *,35 S *,36 R *,37 S *)]-33-[(3-Amino-3,6-dideoxy-(beta)-D-mannopyranosyl)oxy]-1,3,5,6,9,11,17,37-octahydroxy-15,16,18-trimethyl-13-oxo-14,39-dioxabi-cyclo[33.3.1]nonatriaconta-19,21,23,25,27,29,31-heptaene-36-carboxylic acid] | Over 80% |  | 
humanized anti-Tac: humanized monoclonal antibody that binds to the p55 subunit of the human IL-2 receptor, described in U.S. Pat. No. 5,530,101 |  | reduced immunogenicity relative to mouse anti-Tac | (essentially) non-immunogenic
